From patent US20220089784A1 (University of California, published 2022)

T1: BoNT/F1 (proteolytic BoNT/F) (Clostridium botulinum, UniProt A7GBG3 1-1278)
T1 sequence: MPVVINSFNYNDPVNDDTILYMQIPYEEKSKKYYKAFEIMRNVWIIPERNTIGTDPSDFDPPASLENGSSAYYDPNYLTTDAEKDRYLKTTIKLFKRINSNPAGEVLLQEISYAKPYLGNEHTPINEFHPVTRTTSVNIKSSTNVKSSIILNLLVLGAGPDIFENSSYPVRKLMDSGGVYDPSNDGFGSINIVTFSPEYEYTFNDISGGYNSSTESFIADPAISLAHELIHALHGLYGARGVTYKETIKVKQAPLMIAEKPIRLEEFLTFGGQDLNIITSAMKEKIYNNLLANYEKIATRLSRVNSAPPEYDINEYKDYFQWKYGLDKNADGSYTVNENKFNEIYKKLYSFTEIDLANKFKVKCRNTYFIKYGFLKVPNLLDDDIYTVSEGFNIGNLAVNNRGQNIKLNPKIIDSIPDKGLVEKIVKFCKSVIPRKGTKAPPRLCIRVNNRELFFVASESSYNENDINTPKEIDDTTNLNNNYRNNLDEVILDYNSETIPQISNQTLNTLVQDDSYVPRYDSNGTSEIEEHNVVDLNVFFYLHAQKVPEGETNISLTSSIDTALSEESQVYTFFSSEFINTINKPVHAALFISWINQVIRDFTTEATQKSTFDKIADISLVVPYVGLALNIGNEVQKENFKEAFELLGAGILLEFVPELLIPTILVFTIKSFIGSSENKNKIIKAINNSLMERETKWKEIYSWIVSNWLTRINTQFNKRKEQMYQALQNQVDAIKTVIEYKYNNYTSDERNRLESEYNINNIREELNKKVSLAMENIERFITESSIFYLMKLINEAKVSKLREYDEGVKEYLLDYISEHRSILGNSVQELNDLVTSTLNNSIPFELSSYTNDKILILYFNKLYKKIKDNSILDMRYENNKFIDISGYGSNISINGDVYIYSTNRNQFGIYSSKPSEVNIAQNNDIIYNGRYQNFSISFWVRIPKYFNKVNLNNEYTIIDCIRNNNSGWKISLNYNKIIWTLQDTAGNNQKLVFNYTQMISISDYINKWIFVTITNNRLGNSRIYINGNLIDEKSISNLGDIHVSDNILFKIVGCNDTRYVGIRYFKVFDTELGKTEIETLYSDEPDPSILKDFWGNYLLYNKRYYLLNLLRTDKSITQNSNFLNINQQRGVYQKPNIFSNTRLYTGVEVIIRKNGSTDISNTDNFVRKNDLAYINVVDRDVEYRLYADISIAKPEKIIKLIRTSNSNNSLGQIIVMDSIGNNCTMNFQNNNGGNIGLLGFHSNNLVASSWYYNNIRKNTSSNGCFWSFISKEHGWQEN

T2: BoNT/D (Clostridium botulinum, UniProt P19321 2-1276)
T2 sequence: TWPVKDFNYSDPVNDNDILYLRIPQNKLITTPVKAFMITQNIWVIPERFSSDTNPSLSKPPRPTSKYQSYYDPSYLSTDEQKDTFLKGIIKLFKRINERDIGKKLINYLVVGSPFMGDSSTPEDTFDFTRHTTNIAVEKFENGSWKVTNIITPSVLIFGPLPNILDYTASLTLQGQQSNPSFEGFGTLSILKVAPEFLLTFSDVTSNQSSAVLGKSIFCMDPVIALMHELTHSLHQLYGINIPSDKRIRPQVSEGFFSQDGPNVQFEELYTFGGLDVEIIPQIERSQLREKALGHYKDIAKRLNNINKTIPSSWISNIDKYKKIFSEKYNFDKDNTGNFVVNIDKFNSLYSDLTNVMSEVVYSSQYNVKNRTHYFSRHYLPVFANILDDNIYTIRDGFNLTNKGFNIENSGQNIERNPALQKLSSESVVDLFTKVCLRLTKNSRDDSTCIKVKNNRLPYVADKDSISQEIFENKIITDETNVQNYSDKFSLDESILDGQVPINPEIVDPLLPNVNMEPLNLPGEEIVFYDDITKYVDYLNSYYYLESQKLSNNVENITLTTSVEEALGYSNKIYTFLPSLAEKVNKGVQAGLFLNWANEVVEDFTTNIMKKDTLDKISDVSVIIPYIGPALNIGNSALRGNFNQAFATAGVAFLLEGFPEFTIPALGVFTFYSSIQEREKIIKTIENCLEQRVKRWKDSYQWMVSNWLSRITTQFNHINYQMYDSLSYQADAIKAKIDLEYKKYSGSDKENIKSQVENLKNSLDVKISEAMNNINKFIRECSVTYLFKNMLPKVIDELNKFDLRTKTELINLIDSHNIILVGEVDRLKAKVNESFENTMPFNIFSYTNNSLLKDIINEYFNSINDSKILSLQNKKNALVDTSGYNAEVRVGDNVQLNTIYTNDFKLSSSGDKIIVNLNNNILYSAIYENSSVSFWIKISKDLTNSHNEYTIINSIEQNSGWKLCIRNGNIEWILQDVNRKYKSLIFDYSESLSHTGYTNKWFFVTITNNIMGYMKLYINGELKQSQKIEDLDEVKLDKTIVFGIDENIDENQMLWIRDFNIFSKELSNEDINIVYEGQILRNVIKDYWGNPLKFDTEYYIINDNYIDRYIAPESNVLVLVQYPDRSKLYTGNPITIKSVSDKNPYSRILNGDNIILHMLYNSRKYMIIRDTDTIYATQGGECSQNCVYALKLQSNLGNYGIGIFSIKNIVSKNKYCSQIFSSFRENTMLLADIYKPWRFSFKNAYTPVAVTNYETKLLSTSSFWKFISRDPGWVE

T3: BoNT/C1 holotoxin (Clostridium botulinum, UniProt P18640 2-1291)
T3 sequence: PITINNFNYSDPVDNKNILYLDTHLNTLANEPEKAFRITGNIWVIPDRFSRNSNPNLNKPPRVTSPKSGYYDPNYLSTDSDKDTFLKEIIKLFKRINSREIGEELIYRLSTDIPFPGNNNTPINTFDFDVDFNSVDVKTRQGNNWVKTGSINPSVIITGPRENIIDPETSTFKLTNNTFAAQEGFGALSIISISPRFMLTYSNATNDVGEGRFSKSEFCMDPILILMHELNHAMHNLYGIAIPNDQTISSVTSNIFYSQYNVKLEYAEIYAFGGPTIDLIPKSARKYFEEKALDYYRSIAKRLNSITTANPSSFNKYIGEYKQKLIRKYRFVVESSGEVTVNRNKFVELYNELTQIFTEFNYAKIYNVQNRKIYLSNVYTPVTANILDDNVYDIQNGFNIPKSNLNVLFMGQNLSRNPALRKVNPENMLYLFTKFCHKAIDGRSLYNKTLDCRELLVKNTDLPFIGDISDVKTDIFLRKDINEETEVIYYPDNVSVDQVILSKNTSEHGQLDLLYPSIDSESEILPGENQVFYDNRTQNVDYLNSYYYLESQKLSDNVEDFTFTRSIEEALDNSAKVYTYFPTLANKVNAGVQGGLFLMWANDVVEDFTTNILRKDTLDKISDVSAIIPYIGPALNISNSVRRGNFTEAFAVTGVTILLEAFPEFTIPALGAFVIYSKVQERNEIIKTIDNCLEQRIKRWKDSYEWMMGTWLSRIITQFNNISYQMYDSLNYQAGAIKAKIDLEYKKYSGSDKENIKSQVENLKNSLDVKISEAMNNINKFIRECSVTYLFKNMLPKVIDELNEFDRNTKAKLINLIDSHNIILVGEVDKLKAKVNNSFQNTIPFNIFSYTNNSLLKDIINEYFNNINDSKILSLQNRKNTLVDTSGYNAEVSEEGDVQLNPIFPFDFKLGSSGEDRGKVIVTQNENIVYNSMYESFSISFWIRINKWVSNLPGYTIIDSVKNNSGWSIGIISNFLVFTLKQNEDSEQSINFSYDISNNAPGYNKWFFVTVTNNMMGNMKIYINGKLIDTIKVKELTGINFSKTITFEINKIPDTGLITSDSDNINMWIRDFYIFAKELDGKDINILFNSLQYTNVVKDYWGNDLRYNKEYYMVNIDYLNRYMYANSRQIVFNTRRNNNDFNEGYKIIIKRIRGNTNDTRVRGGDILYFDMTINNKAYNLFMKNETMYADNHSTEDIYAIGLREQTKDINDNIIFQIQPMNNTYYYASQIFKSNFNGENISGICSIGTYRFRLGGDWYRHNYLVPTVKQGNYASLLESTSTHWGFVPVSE


Assays:
[1] = target: T1, BoNT/F1 (proteolytic BoNT/F); experiment: IgG
[2] = target: T2, BoNT/D; experiment: yeast scFv FACS
[3] = target: T3, BoNT/C1 holotoxin; experiment: yeast scFv FACS

Binder	Kd [1]	binding result [2]	Kd [3]
6F8 IgG (antibody, V domains shown, IgG from scFv V genes) VH: QVQLKQSGAELVKSGASVKLSCTASGFNIKDFYMHWVKQRTEQGLEWIGRIDPEDGETKYAPKFQGKATITADTSSNTAYLQLSSLTSEDTAVYYCVRDRDYDWGQGTTLTVSS VL: not shown	0.22 nM		
6F6 IgG (antibody, V domains shown, IgG from scFv V genes) VH: EVQLLESGGGLVKPGGSRKLSCEASGFTFSDYGMHWVRQAPEKGLEWVGYISSGSRIIYYADTVKGRITISRDNAKNTLFLQMTSLRSEDTAMYYCVRGTWVFDYWGQGTTLTVSS VL: DIVMTQSPASLAVSLGQRATISCRASESVDNYGISFMNWFQQKPGQPPKLLIYAASNLESGIPARFSGSGSGTDFTLTINPVEADDVATYYCQQSNEDPYTFGGGTKLEIK	0.048 nM		
4C1 scFv (scFv, V domains shown, human) VH: QVQLQESGPGLVKPSQTLSLTCAVSGGSINSGDYYWTWIRQHPGKGLEWIGNIYYTGRTYYNPSLQSRLTMSVDTSRTHFSLKLSAVTAADTAVYYCARGQDTSMVTRNFYYGLDVWGQGTTVTVSS VL: DIVMTQSPSFVSASVGDRVTITCRASQGISSYLAWYQQKPGKAPKLLIYAASTLQSGVPSRFSGSGSGTDFTLTISSLQPEDIATYYCQELSSYPLTFGGGTKLEIK		no binding (tested: ~1 µM)	2.7 nM
6F9 IgG (antibody, V domains shown, IgG from scFv V genes) VH: QVQLQQPGAELVKPGASVKLSCKASGNSFASSWMHWVKQRPGQGLEWIGMIHPYSGSTNFNEKFKSKATLSVDKSSSTAYMQLSSLTSEDSAVYYCAMNWDWYFDVWGTGTTVTVSA VL: DVVMTQSPKFMSTSVGDRVSITCKASQDVGTAVAWYQQKPGQSPKLLIYWASTRHTGVPDRFTGSGSGTDFTLTISDVLSEDLADYFCQQYGGYPTFGGGTKLEIK	0.26 nM		
87C78 scFv (scFv, V domains shown, human) VH: QVQLQESGGGVVQPGKSLRLSCVTSTFTLGTYAMHWVRQAPGKGLQWVAVISYDGRYADYADSVKGRFNISRDNSKNTLYLQMHSLTTEDTALYYCAKAIKAFRPVPPSFHMDVWGIGTTVTVSS VL: DIVMTQSPSSLSASVGDRVTITCRASQGISSYLAWYQQKPGKAPQLLIYKASILKSGVPSRFSGSGSGTEFTLTISSLQPEDFATYFCQQTFDTPLTFGQGTKVEIK		no binding (tested: ~1 µM)	1 nM
6F4 IgG (antibody, V domains shown, IgG from scFv V genes) VH: EVQLQESGPELVKPGASVKISCKTSGYTFTDYYMNWVKQSHGKSLEWIGDINPNNGGATYNQKFKGKATLTVDKSSRTLYMELRSLTSEDSAVYHCACGPYFFDFWGQGTTLTVSS VL: QIVLTQSPATMSASPGEKVTITCSASSSVNYMHWYQQKPGSSPKLWIYDTSSLAPGVPARFSGSGSGTSYSLTISSMEAEDAASYFCHQWSSYPYTFGGGTKLEIK	1.17 nM		
6F7 IgG (antibody, V domains shown, IgG from scFv V genes) VH: QVQLQESGPGLVKPSQTVSLTCTVAGYSITNGNHWWNWIRQVSGSKLEWIGYITSSGSTDSNPSLKSRISITRDTSKNQLFLQLNSVTTEDIATYYCARSSNYFFHVLDYWGQGTSVTVSS VL: DIVLTQTPAIMSASPGEKVTMTCSASSSVSYMHWFQQKPGTSPKLWIYSTSNLASGVPARFSGSGSGTSYSLTISRMEAEDAATYYCQQRSSYPPTFGGGTRLEIK	0.57 nM		
4C3 scFv (scFv, V domains shown, human) VH: EVQLVQSGAEVKKPGSSVKVSCKASGNSLNNYAITWVRQAPGQGLEWMGGINPLFGTANYAQKFQDRVTMTADESTNIAYLDLSSLTTADTAVYFCAVGAFTNYPFWGQGTTVTVSS VL: SGLTQDPAVSEALGQTVRITCQGDSLRSYYASWYQQKPGQAPLLVIYAGNNRPSGIPDRFSGSSSGNTASLTITGARAEDEADYYCNSRDSSGNYLFGAGTKLTVL		no binding (tested: ~1 µM)	4.7 nM
6F10 IgG (antibody, V domains shown, IgG from scFv V genes) VH: EVQLQESGGDLVKPGGSLKLSCAASGFTFSYYGMSWVRQTPDKRLEWVATISSGGTYTYYPDSVKGRFTISRDNAKNTLYLQMSSLSSEDTAMYYCARRRSYDSVYWYFDVWGAGTSVTVSS VL: DIVLTQSPAITAASLGQKVTITCSASSSGSYIHWYQQKSGTSPKLLIYRTSNLASGVPSRFSGSGSGTFYSLTISSVEAEDAADYFCHQWSSYPTFGGGTKLEIK	0.07 nM		
